Experimental data as given in patent US20240327535A1 (EISAI R AND D MANAGEMENT, published 2024).
Read-outs that look alike come from different tables or passages of the source.

T1: extracellular domain of human BCMA (human, UniProt Q02223 1-54)
T1 construct: amine-linked to Octet AR2G tips; also called hsBCMA; BCMA (human)
T1 sequence: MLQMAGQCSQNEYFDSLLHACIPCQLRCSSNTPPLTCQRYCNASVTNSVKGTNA


Tests used:
Test in all cases: Octet BLI; Fab 200 nM
[1] = target: T2, extracellular domain of rhesus monkey BCMA (rhesus monkey, UniProt F7FFA0 1-53)
T2 construct: extracellular domain; also called RhBCMA
T2 sequence (F7FFA0 entry or part of it): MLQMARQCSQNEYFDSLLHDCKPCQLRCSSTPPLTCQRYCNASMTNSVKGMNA

[2] = target: T1, extracellular domain of human BCMA
[3] = target: T2, extracellular domain of rhesus monkey …; remark: listed apart in the source
[4] = target: T1, extracellular domain of human BCMA; remark: listed apart in the source

Row | Binder | Kd [1] | Kd [2] | Kd [3] | Kd [4]
1 | AB200-R1a-Fab_Vk29 (Fab, V domains shown) VH: QVQLVQSGAEVKKPGSSVKVSCKASGGTFSNYWMHWVRQAPGQGLEWMGATYRGHSDTYYNQKFKGRVTITADKSTSTAYMELSSLRSEDTAVYYCARGAIYHGYDVLDNWGQGTLVTVSS VL: DIQMTQSPSSLSASVGDRVTITCSASHDVSNYLNWYQQKPGKAPKLLIYYTSNLHSGVPSRFSGSGSGTDFTLTISSLQPEDFATYYCQQYRRLPWTFGQGTKLEIKR | 0.00496 µM | 0.00155 µM |  | 
2 | AB200-R1a-Fab_Vk12 (Fab, V domains shown) VH: QVQLVQSGAEVKKPGSSVKVSCKASGGTFSNYWMHWVRQAPGQGLEWMGATYRGHSDTYYNQKFKGRVTITADKSTSTAYMELSSLRSEDTAVYYCARGAIYHGYDVLDNWGQGTLVTVSS VL: DIQMTQSPSSLSASVGDRVTITCSASQDISNYLNWYQQKPGKAPKLLIYYATNLHSGVPSRFSGSGSGTDFTLTISSLQPEDFATYYCQQYRRLPWTFGQGTKLEIKR | 0.0168 µM | 0.00489 µM |  | 
3 | AB200-R1a-Fab_Vk8 (Fab, V domains shown) VH: QVQLVQSGAEVKKPGSSVKVSCKASGGTFSNYWMHWVRQAPGQGLEWMGATYRGHSDTYYNQKFKGRVTITADKSTSTAYMELSSLRSEDTAVYYCARGAIYHGYDVLDNWGQGTLVTVSS VL: DIQMTQSPSSLSASVGDRVTITCSASQDISNYLNWYQQKPGKAPKLLIYYTSNLQSGVPSRFSGSGSGTDFTLTISSLQPEDFATYYCHQSRKLPWTFGQGTKLEIKR | 0.0421 µM | 0.0241 µM |  | 
4 | AB200-R1a-Fab(hCDR1) (Fab, V domains shown) VH: QVQLVQSGAEVKKPGSSVKVSCKASGGTFSNYWMHWVRQAPGQGLEWMGATYRGHSDTYYNQKFKGRVTITADKSTSTAYMELSSLRSEDTAVYYCARGAIYHGYDVLDNWGQGTLVTVSS VL: DIQMTQSPSSLSASVGDRVTITCRASQSISSYLNWYQQKPGKAPKLLIYYTSNLHSGVPSRFSGSGSGTDFTLTISSLQPEDFATYYCQQYRKLPWTFGQGTKLEIKR | 0.0053 µM | 0.00158 µM |  | 
5 | AB200-R1a-Fab_Vk16 (Fab, V domains shown) VH: QVQLVQSGAEVKKPGSSVKVSCKASGGTFSNYWMHWVRQAPGQGLEWMGATYRGHSDTYYNQKFKGRVTITADKSTSTAYMELSSLRSEDTAVYYCARGAIYHGYDVLDNWGQGTLVTVSS VL: DIQMTQSPSSLSASVGDRVTITCSASQDITNYLNWYQQKPGKAPKLLIYATSNLHSGVPSRFSGSGSGTDFTLTISSLQPEDFATYYCQEYRKLPWTFGQGTKLEIKR | 0.0129 µM | 0.00318 µM |  | 
6 | AB200-R1a-Fab_Vk15 (Fab, V domains shown) VH: QVQLVQSGAEVKKPGSSVKVSCKASGGTFSNYWMHWVRQAPGQGLEWMGATYRGHSDTYYNQKFKGRVTITADKSTSTAYMELSSLRSEDTAVYYCARGAIYHGYDVLDNWGQGTLVTVSS VL: DIQMTQSPSSLSASVGDRVTITCSASHEISNYLNWYQQKPGKAPKLLIYYTSSLHSGVPSRFSGSGSGTDFTLTISSLQPEDFATYYCQQYRKLPWTFGQGTKLEIKR | 0.00971 µM | 0.00293 µM |  | 
7 | AB200-R1a-Fab_Vk35 (Fab, V domains shown) VH: QVQLVQSGAEVKKPGSSVKVSCKASGGTFSNYWMHWVRQAPGQGLEWMGATYRGHSDTYYNQKFKGRVTITADKSTSTAYMELSSLRSEDTAVYYCARGAIYHGYDVLDNWGQGTLVTVSS VL: DIQMTQSPSSLSASVGDRVTITCSASQDLSNYLNWYQQKPGKAPKLLIYYTSNLHSGVPSRFSGSGSGTDFTLTISSLQPEDFATYYCQQYKKIPWTFGQGTKLEIKR | 0.0189 µM | 0.0073 µM |  | 
8 | AB200-R1a-Fab_Vk31 (Fab, V domains shown) VH: QVQLVQSGAEVKKPGSSVKVSCKASGGTFSNYWMHWVRQAPGQGLEWMGATYRGHSDTYYNQKFKGRVTITADKSTSTAYMELSSLRSEDTAVYYCARGAIYHGYDVLDNWGQGTLVTVSS VL: DIQMTQSPSSLSASVGDRVTITCSASQDISNYLNWYQQKPGKAPKLLIYYTSNIHIGVPSRFSGSGSGTDFTLTISSLQPEDFATYYCQQYRKLPWSFGQGTKLEIKR | 0.00896 µM | 0.00236 µM |  | 
9 | AB200-R1a-Fab_Vk25 (Fab, V domains shown) VH: QVQLVQSGAEVKKPGSSVKVSCKASGGTFSNYWMHWVRQAPGQGLEWMGATYRGHSDTYYNQKFKGRVTITADKSTSTAYMELSSLRSEDTAVYYCARGAIYHGYDVLDNWGQGTLVTVSS VL: DIQMTQSPSSLSASVGDRVTITCSASQDISNYLNWYQQKPGKAPKLLIYAASNLHSGVPSRFSGSGSGTDFTLTISSLQPEDFATYYCQQYRKIPWTFGQGTKLEIKR | 0.0136 µM | 0.00344 µM |  | 
10 | AB200-R1a-Fab_Vk34 (Fab, V domains shown) VH: QVQLVQSGAEVKKPGSSVKVSCKASGGTFSNYWMHWVRQAPGQGLEWMGATYRGHSDTYYNQKFKGRVTITADKSTSTAYMELSSLRSEDTAVYYCARGAIYHGYDVLDNWGQGTLVTVSS VL: DIQMTQSPSSLSASVGDRVTITCSASHDISNYLNWYQQKPGKAPKLLIYYTSNLHSGVPSRFSGSGSGTDFTLTISSLQPEDFATYYCHEYRKLPWTFGQGTKLEIKR | 0.0747 µM | 0.0265 µM |  | 
11 | AB200-R1a-Fab_Vk36 (Fab, V domains shown) VH: QVQLVQSGAEVKKPGSSVKVSCKASGGTFSNYWMHWVRQAPGQGLEWMGATYRGHSDTYYNQKFKGRVTITADKSTSTAYMELSSLRSEDTAVYYCARGAIYHGYDVLDNWGQGTLVTVSS VL: DIQMTQSPSSLSASVGDRVTITCSASQDLSNYLNWYQQKPGKAPKLLIYYTSNLQSGVPSRFSGSGSGTDFTLTISSLQPEDFATYYCQQYRRLPWTFGQGTKLEIKR | 0.00506 µM | 0.00143 µM |  | 
12 | AB200-R1a-Fab_Vk10 (Fab, V domains shown) VH: QVQLVQSGAEVKKPGSSVKVSCKASGGTFSNYWMHWVRQAPGQGLEWMGATYRGHSDTYYNQKFKGRVTITADKSTSTAYMELSSLRSEDTAVYYCARGAIYHGYDVLDNWGQGTLVTVSS VL: DIQMTQSPSSLSASVGDRVTITCSASQSISNYLNWYQQKPGKAPKLLIYYTSNLHSGVPSRFSGSGSGTDFTLTISSLQPEDFATYYCQQSRKMPWTFGQGTKLEIKR | 0.195 µM | 0.11 µM |  | 
13 | AB200-R1a-Fab_Vk9 (Fab, V domains shown) VH: QVQLVQSGAEVKKPGSSVKVSCKASGGTFSNYWMHWVRQAPGQGLEWMGATYRGHSDTYYNQKFKGRVTITADKSTSTAYMELSSLRSEDTAVYYCARGAIYHGYDVLDNWGQGTLVTVSS VL: DIQMTQSPSSLSASVGDRVTITCSASQEISNYLNWYQQKPGKAPKLLIYATSNLHSGVPSRFSGSGSGTDFTLTISSLQPEDFATYYCQQYRKLPWSFGQGTKLEIKR | 0.00803 µM | 0.00204 µM |  | 
14 | AB200-(2Vk31)_R2-VH-v2 (Fab, V domains shown) VH: QVQLVQSGAEVKKPGSSVKVSCKASGGTFTNYWIHWVRQAPGQGLEWMGATYRSHSTTNYNQKFKSRVTITADKSTSTAYMELSSLRSEDTAVYYCARGAVYHGYDVIDNWGQGTLVTVSS VL: DIQMTQSPSSLSASVGDRVTITCRASQSISSYLNWYQQKPGKAPKLLIYATSNLQIGVPSRFSGSGSGTDFTLTISSLQPEDFATYYCQQFRRLPWTFGQGTKLEIKR |  |  | 0.0556 µM | 0.025 µM
15 | AB200-R1a-Fab_Vk33 (Fab, V domains shown) VH: QVQLVQSGAEVKKPGSSVKVSCKASGGTFSNYWMHWVRQAPGQGLEWMGATYRGHSDTYYNQKFKGRVTITADKSTSTAYMELSSLRSEDTAVYYCARGAIYHGYDVLDNWGQGTLVTVSS VL: DIQMTQSPSSLSASVGDRVTITCSASQDISSYLNWYQQKPGKAPKLLIYFTSNLHSGVPSRFSGSGSGTDFTLTISSLQPEDFATYYCQQSRKLPWTFGQGTKLEIKR | 0.0374 µM | 0.0195 µM |  | 
16 | AB200-R1a-Fab_Vk32 (Fab, V domains shown) VH: QVQLVQSGAEVKKPGSSVKVSCKASGGTFSNYWMHWVRQAPGQGLEWMGATYRGHSDTYYNQKFKGRVTITADKSTSTAYMELSSLRSEDTAVYYCARGAIYHGYDVLDNWGQGTLVTVSS VL: DIQMTQSPSSLSASVGDRVTITCSASQDLSNYLNWYQQKPGKAPKLLIYYTSSLHSGVPSRFSGSGSGTDFTLTISSLQPEDFATYYCQQYRKTPWTFGQGTKLEIKR | 0.0447 µM | 0.0117 µM |  | 
17 | AB200-R1a-Fab_Vk30 (Fab, V domains shown) VH: QVQLVQSGAEVKKPGSSVKVSCKASGGTFSNYWMHWVRQAPGQGLEWMGATYRGHSDTYYNQKFKGRVTITADKSTSTAYMELSSLRSEDTAVYYCARGAIYHGYDVLDNWGQGTLVTVSS VL: DIQMTQSPSSLSASVGDRVTITCTASQSISNYINWYQQKPGKAPKLLIYYTSNLHSGVPSRFSGSGSGTDFTLTISSLQPEDFATYYCQQYRKLPWTFGQGTKLEIKR | 0.00478 µM | 0.00156 µM |  | 
18 | AB200-R1a-Fab_Vk2 (Fab, V domains shown) VH: QVQLVQSGAEVKKPGSSVKVSCKASGGTFSNYWMHWVRQAPGQGLEWMGATYRGHSDTYYNQKFKGRVTITADKSTSTAYMELSSLRSEDTAVYYCARGAIYHGYDVLDNWGQGTLVTVSS VL: DIQMTQSPSSLSASVGDRVTITCSASQEVSNYLNWYQQKPGKAPKLLIYYTSNLHSGVPSRFSGSGSGTDFTLTISSLQPEDFATYYCQEYRKLPWTFGQGTKLEIKR | 0.0149 µM | 0.00427 µM |  | 
19 | AB200-(2Vk31)_R2-CDR1-hs-v3 (Fab, V domains shown) VH: QVQLVQSGAEVKKPGSSVKVSCKASGGTFSSYAISWVRQAPGQGLEWMGATYRSQSDTYYNQKYKSRVTITADKSTSTAYMELSSLRSEDTAVYYCARGAVYHGYDVIDNWGQGTLVTVSS VL: DIQMTQSPSSLSASVGDRVTITCRASQSISSYLNWYQQKPGKAPKLLIYATSNLQIGVPSRFSGSGSGTDFTLTISSLQPEDFATYYCQQFRRLPWTFGQGTKLEIKR |  |  | 0.54 µM | 0.319 µM
20 | AB200-R1a-Fab(hCDR3) (Fab, V domains shown) VH: QVQLVQSGAEVKKPGSSVKVSCKASGGTFSNYWMHWVRQAPGQGLEWMGATYRGHSDTYYNQKFKGRVTITADKSTSTAYMELSSLRSEDTAVYYCARGAIYHGYDVLDNWGQGTLVTVSS VL: DIQMTQSPSSLSASVGDRVTITCSASQDISNYLNWYQQKPGKAPKLLIYYTSNLHSGVPSRFSGSGSGTDFTLTISSLQPEDFATYYCQQSYSTPWTFGQGTKLEIKR | 0.113 µM | 0.0828 µM |  | 
